The source of these data is patent publication US20250026843A1 (ANHUI BIOX VISION BIOLOGICAL TECHNOLOGY, published 2025).

As usually defined, the EC50 is the concentration needed to bring the measured effect to its halfway point. Lower therefore signals higher potency in that assay.

T1: human CLDN18.2 expressed on the cell surface of HEK293 cells (human, UniProt P56856-2 1-261)
T1 construct: whole, on cells
T1 sequence (looked up): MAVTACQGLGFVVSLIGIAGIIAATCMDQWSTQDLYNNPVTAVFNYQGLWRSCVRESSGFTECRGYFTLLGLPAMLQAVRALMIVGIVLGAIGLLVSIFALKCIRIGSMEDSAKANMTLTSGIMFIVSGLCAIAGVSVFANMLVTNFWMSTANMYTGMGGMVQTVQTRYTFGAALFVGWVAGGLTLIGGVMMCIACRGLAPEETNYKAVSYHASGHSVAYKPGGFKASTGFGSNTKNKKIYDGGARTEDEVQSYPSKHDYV

T2: human CLDN18.1 expressed on the cell surface of HEK293 cells (human, UniProt P56856 1-261)
T2 construct: whole, on cells
T2 sequence (looked up): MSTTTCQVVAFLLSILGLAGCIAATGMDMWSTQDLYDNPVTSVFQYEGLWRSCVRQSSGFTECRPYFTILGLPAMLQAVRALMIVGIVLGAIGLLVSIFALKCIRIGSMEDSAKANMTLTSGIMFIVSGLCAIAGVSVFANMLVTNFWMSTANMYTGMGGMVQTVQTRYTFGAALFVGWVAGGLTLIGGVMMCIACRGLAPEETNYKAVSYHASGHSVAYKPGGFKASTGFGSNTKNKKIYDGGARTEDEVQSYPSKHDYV

B1: C8-WT-NA3S-HC (bispecific antibody, human IgG1, kappa, N297Q)
heavy: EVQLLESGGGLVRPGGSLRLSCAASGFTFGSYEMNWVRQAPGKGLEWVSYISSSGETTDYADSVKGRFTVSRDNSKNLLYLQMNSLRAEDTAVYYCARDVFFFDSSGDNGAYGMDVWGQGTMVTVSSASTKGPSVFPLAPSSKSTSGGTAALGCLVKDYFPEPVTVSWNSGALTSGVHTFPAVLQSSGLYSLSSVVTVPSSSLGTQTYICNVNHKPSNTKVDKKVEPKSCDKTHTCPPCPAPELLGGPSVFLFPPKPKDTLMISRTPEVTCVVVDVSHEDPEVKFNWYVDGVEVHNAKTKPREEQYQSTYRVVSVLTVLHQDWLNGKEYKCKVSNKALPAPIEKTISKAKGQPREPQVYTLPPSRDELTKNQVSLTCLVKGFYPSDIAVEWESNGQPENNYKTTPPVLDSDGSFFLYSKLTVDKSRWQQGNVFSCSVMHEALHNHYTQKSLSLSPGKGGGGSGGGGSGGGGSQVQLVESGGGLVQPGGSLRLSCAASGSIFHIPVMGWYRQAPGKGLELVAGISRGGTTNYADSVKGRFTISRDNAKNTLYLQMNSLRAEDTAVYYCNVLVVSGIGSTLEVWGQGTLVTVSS
light: DIQLTQSPSSLTASVGDRVTITCRSSQGIRSSLAWYQQKPGKPPKLLIYGASSLEGGVPSRFSGSGSGTDFTLTISSLQPEDFATYYCQQLNSFPSTFGQGTKLEIKRTVAAPSVFIFPPSDEQLKSGTASVVCLLNNFYPREAKVQWKVDNALQSGNSQESVTEQDSKDSTYSLSSTLTLSKADYEKHKVYACEVTHQGLSSPVTKSFNRGEC
notes: Fc is hIgG1 N297Q; also called anti-CD40×CLDN18.2 bispecific antibody; bispecific antibody of the present invention
B2: C8-10-NA3S-HC (bispecific antibody, human IgG1, kappa, N297Q)
heavy: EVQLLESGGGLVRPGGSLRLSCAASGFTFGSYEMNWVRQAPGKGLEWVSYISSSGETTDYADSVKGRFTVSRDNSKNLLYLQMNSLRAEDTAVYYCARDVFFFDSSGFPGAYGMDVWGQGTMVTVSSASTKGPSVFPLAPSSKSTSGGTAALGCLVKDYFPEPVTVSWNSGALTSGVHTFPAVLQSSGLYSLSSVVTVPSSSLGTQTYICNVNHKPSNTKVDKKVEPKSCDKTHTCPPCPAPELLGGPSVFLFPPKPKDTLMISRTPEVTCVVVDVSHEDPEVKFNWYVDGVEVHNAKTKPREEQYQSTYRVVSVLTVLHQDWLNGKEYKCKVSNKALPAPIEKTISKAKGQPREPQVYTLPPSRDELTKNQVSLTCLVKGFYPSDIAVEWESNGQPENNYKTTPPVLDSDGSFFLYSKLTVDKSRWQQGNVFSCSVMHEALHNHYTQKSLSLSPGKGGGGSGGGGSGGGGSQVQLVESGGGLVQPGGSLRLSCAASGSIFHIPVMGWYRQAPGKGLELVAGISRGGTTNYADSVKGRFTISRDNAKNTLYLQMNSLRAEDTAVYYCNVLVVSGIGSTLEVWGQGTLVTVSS
light: B1 light
notes: as for B1
B3: C8-2-NA3S-HC (bispecific antibody, human IgG1, kappa, N297Q)
heavy: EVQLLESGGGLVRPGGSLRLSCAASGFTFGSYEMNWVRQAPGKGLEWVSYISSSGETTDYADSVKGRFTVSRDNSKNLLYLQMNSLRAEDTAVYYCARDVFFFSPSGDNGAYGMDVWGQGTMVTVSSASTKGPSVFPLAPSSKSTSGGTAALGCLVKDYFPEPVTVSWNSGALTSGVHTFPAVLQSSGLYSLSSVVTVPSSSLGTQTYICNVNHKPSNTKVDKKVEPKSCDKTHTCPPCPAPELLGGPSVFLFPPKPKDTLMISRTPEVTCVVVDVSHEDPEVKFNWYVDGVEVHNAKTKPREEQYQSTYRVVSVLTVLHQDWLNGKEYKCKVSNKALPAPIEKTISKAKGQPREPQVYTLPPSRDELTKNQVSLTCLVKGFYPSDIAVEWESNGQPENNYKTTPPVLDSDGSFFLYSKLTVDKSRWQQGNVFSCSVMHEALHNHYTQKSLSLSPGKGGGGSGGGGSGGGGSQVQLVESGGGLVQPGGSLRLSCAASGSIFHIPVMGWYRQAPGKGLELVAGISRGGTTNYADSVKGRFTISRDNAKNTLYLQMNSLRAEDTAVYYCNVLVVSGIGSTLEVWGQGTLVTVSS
light: B1 light
notes: as for B1
B4: C8-6-NA3S-HC (bispecific antibody, human IgG1, kappa, N297Q)
heavy: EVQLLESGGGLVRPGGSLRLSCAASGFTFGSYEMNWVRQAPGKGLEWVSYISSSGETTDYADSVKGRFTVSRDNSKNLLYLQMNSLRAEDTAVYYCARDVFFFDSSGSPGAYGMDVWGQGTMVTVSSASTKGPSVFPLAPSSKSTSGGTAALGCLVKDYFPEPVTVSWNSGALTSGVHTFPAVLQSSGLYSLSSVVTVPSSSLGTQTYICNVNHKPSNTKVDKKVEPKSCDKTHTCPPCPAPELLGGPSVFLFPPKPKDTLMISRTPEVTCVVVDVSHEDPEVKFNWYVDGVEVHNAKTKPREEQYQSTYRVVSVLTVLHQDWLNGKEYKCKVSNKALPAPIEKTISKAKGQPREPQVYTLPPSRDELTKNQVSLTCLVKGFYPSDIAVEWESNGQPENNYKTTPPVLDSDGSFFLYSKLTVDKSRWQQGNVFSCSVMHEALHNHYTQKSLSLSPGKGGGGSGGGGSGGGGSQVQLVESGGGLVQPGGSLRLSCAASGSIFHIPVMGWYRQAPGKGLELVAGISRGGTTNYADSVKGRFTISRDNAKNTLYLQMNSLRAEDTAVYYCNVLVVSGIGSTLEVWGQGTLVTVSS
light: B1 light
notes: as for B1
B5: APX005 (antibody, V domains shown)
VH: QVQLVESGGGVVQPGRSLRLSCAASGFSFSSTYVCWVRQAPGKGLEWIACIYTGDGTNYSASWAKGRFTISKDSSKNTVYLQMNSLRAEDTAVYFCARPDITYGFAINFWGPGTLVTVSS
VL: DIQMTQSPSSLSASVGDRVTIKCQASQSISSRLAWYQQKPGKPPKLLIYRASTLASGVPSRFSGSGSGTDFTLTISSLQPEDVATYYCQCTGYGISWPIGGGTKVEIK

One experiment deals with T3, P17-His fusion protein (extracellular domain of human CD40 with a His tag) (human, UniProt P25942 21-193).
T3 construct: range 21-193; not shown: His tag
T3 sequence (P25942 21-193 limits assumed): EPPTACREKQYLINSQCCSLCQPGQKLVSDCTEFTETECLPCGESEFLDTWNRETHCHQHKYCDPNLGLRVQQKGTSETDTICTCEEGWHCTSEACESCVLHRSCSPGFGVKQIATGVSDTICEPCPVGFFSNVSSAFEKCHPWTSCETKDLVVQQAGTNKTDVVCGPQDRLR
In words: ELISA, P17-His coated on plate, anti-human Fc-HRP detection. The method, then:
The obtained 4 bispecific antibodies were detected for affinity against the extracellular domain of human CD40 (Uniprot: positions 21 to 193 of P25942) through ELISA. The extracellular domain of human CD40 carried a His tag, also referred to herein as a P17-His fusion protein.
2 μg/mL of the P17-His fusion protein was coated onto a 96-well ELISA plate at 30 μL per well at 4° C. overnight. The next day, after encapsulating in 5% PBSM (PBS+5% Milk) at room temperature for 2 h, serially diluted (20 nM in the first well, 10-fold dilution in the second well, 3-fold dilution in the third to seventh wells, and 4-fold dilution in the seventh to eighth wells) anti-CD40×CLDN18.2 bispecific antibody, positive control APX005 (sequence derived from Apexigen Inc. US20120301488A1, prepared in the laboratory), or isotype IgG1 negative control were added. After culturing at room temperature for 1 h, washed 3 times with PBST (PBS+0.05% Tween-20), and then 30 μL of Goat-anti-human-Fc-HRP (abcam, ab97225) was added. After culturing at room temperature for 1 h, washed 3 times with PBST (PBS+0.05% Tween-20), and TMB colorimetric solution was added for color development for 5 to 30 min. After termination, OD450 was detected through a microplate reader (Beckman Coulter), and the results were analyzed and plotted through Graphpad 7.0 to evaluate the binding of the bispecific antibody to the P17-His fusion protein.
In general terms: In an ELISA, binding on a coated surface is turned into a signal by an enzyme label.
B1 yielded an EC50 of 0.11 nM.
B2 gave a 50% effective concentration (EC50) of 0.104 nM.
The molecule B3 had an EC50 of 0.127 nM.
Still for that read-out and setting: the figure for B4 is 0.102 nM; for B5 it is 0.0612 nM.

The next experiment has as its target T1, human CLDN18.2 expressed on the cell …. Put plainly: flow cytometry on 18.2-HEK293 cells. Here is the method:
After culturing at 4° C. for 30 min, the cells were washed and added with 100 μL of 1:300 diluted Goat F(ab′)₂ Anti-human Fc (PE) and cultured for 30 min. The cells were then washed and the binding of the bispecific antibody to CLDN18.2 expressed on the surface of HEK293 cells was detected through flow cytometry.
(In general: A flow cytometer gives signals particle by particle.)
For the molecule B1, the binding result is recorded as “binds”.
Same read-out and setting: the entry for B2 is “binds”.
In the case of B3, the binding result is reported as “binds”.
Turning to B4, the binding result is “binds”.

For another experiment, the target named is T2, human CLDN18.1 expressed on the cell …. Put plainly: flow cytometry on 18.1-HEK293 cells. Here is the method:
After culturing at 4° C. for 30 min, the cells were washed and added with 100 μL of 1:300 diluted PE-labeled Goat F(ab′)₂ Anti-human Fc (PE) and cultured at 4° C. for 30 min. The cells were then washed and the binding of the bispecific antibody to CLDN18.1 molecules expressed on the surface of HEK293 cells was detected through flow cytometry.
On to B1, for which the binding result is reported as “no binding (tested: 115.6 nM highest concentration tested)”.
Turning to B2, the binding result is on record as “no binding (tested: 115.6 nM highest concentration tested)”.
Turning to B3, the binding result is given as “no binding (tested: 115.6 nM highest concentration tested)”.
The same measure, in the same setting: the entry for B4 is “no binding (tested: 115.6 nM highest concentration tested)”.
